Data on one molecule can be found in article doi:10.1101/2022.05.27.493400 (2022).

The target of the assay is human angiotensin-converting-enzyme-2 (ACE2) receptor, recombinant (human, UniProt Q9BYF1 18-740). Briefly: SPR. In general terms: SPR reads the build-up and loss of mass on a sensor chip optically.
human angiotensin-converting-enzyme-2 (ACE2) receptor, recombinant, sequence (Q9BYF1 18-740): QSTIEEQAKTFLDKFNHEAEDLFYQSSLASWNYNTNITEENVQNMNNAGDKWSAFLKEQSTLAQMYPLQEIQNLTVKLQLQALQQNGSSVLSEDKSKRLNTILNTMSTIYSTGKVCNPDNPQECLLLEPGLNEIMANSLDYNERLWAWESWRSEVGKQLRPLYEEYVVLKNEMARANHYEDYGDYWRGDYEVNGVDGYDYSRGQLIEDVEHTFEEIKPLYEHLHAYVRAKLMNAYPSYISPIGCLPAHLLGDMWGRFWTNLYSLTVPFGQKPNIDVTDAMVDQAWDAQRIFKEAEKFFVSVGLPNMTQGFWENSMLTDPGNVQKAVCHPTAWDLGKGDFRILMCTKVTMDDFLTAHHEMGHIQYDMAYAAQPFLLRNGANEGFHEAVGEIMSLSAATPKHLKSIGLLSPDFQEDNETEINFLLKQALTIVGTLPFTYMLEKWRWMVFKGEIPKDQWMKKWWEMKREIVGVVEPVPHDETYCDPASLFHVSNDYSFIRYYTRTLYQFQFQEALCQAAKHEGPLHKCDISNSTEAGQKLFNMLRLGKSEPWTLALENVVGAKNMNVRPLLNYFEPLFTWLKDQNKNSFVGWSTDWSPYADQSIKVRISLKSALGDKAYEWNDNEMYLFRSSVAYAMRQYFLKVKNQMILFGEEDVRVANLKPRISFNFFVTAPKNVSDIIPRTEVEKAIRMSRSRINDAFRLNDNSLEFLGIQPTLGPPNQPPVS

B1: pineapple-derived jacalin-related lectin AcmJRL (natural protein)
chain: SGLVKLGLWGGNEGTLQDIDGHPTRLTKIVIRSAHAIDALQFDYVEDGKTFAAGQWGGNGGKSDTIEFQPGEYLIAIKGTTGALGAVTNLVRSLTFISNMRTYGPFGLEHGTPFSVPVASGRIVAFYGRFGSLVDAFGIYLMPY
modifications: glycation (+162 Da, +324 Da) of lysines in part of the protein (ca. 10% bis-, 36% mono-modified, 54% unmodified); sites not determined
In general, Kd refers to the free concentration of one partner at which half of the binding sites on the other are occupied at equilibrium, for simple one-to-one binding. On to B1, for which the Kd worked out at 36.4 µM.
